# Target: SIF binding receptor from human spermatozoa (human (endogenous in spermatozoa))
# Assay: ITC; microreaction calorimeter, titration mode; 1.5 mL receptor (200 μg mL^-1) in the vial, ligand (500 μg mL^-1) in a 250 μL syringe; PBS
substance,measurement,value
Sperm immobilization factor (SIF) from Staphylococcus aureus (natural protein),Ka,1350 M⁻¹
same,dH,-2.84 kcal/mol
same,"heat released (ligand 7.5 × 10^-4 μM, receptor 4.8 × 10^-3 μM)",9.7 mJ
same,"heat released (ligand 15.0 × 10^-4 μM, receptor 4.8 × 10^-3 μM)",9 mJ
same,"heat released (ligand 22.5 × 10^-4 μM, receptor 4.8 × 10^-3 μM)",8.6 mJ
same,"heat released (ligand 30.0 × 10^-4 μM, receptor 4.8 × 10^-3 μM)",5.6 mJ
same,"heat released (ligand 37.5 × 10^-4 μM, receptor 4.8 × 10^-3 μM)",2.3 mJ
same,"heat released (ligand 45.0 × 10^-4 μM, receptor 4.8 × 10^-3 μM)",2.1 mJ
same,"heat released (ligand 52.5 × 10^-4 μM, receptor 4.8 × 10^-3 μM)",2 mJ

# From publication PMC3478719
